Target: T1, ATP phosphoribosyltransferase (Escherichia coli, UniProt P60757, E271K/H232T/R250H/S288P/T252L)
T1 construct: endogenous in cells; host or cells: E. coli DS9H (chromosomal hisG); sonicated cells, centrifuged supernatant
Type: biochemical, E. coli
Conditions: FIG. 1, compared among hisG_WT, hisG_SDM4, hisG_SDM7
Procedure: Each strain was cultured under conditions of 30° C. and 180 rpm. When the OD600 reached 0.6, ATP-PRT expression was induced with 1 mM IPTG (final concentration) and additional culture was performed for about 4 hours. The cells obtained after culturing were sonicated and centrifuged. The obtained supernatants were used for evaluation of ATP phosphoribosyltransferase activity. […] The protein in each supernatant was quantified to match the concentration, and the enzyme activity was measured after mixing the reactants according to the reaction composition shown in Table 8 below.
The activity was measured at 30° C. at a UV wavelength of 290 nm at 2 minute intervals for 30 minutes.

B1: hisG_SDM7: ATP-PRT variant containing H232T, R250H, T252L, E271K and S288P mutations (protein)
chain: MTDNTRLRIAMQKSGRLSDDSRELLARCGIKINLHTQRLIAMAENMPIDILRVRDDDIPGLVMDGVVDLGIIGENVLEEELLNRRAQGEDPRYFTLRRLDFGGCRLSLATPVDEAWDGPLSLNGKRIATSYPHLLKRYLDQKGISFKSCLLNGSVEVAPRAGLADAICDLVSTGATLEANGLREVEVIYRSKACLIQRDGEMEESKQQLIDKLLTRIQGVIQARESKYIMMTAPTERLDEVIALLPGAEHPLILPLAGDQQRVAMHMVSSKTLFWETMEKLKALGASPILVLPIEKMME
modifications: hisG_SDM7
notes: ATP-PRT variant containing H232T, R250H, T252L, E271K and S288P mutations
Resistance to activity inhibition by histidine: best resistance

— patent US20240060104A1, “ATP-PRT VARIANT WITH REDUCED FEEDBACK INHIBITION BY HISTIDINE, AND HISTIDINE-PRODUCING STRAIN EXPRESSING SAME” (DAESANG CORPORATION, priority 2020, published 2024)
